From US9688743B2, “Optical biosensors” (Carnegie Mellon University, priority 2007, dated 2017)

Experiments:
[1] = Fluorogen binding affinity to soluble FBPs (TO1-2p); details: soluble FBP, in words
Description: (§1) Binding affinity to soluble scFvs was determined by monitoring fluorogenic signal under conditions of ligand depletion using a homogenous 96 well microplate assay similar to above. 1 nM HL1.0.1-TO1, 10 nM L5-MG and 100 nM HL4-MG were each assayed with a 0.1 to 1000 nM range of fluorogen. Fluorescence of each FBP+dye sample was corrected by subtracting the fluorescence of a dye only sample. KD values were determined by non-linear regression using Graphpad Prism 4.0 and a ligand depletion algorithm. Y═(X+KD+R−√{square root over ((−X−KD−R)^2−4*X*R)})÷2 where X is the concentration of fluorogen, and R is the concentration of FBP/fluorogencomplex at the observed or extrapolated plateau at maximum fluorescence. Determination of Quantum Yields

[2] = Spectral characterization of yeast surface displayed FBPs (TO1-2p); assay type: physicochemical; details: cell surface; for excitation maximum: free dye absorbance 504 nm
Description: 10^6 cells in 200 μl yeast buffer were assayed with 100-1000 nM MG-2p or TO1-2p. Spectra were corrected by subtraction of fluorescence of control cells not expressing scFvs.

[3] = Quantum yield and absorbance of FBP/TO1-2p complex; assay type: physicochemical
Description: (§2) FIG. 15 provides graphs illustrating absorbance of fluorogens and FBP/fluorogen complexes. Shown are samples used in quantum yield determinations. The absorbance of FBP/fluorogen complexes is obtained on a dual beam PerkinElmer Lambda 45 spectrophotometer using an equal concentration of FBP without fluorogen as the reference.
(§3) Quantum yields were determined by comparing integrated spectra of FBP/fluorogen complexes with those of reference dyes. Corrected emission spectra were taken at concentrations of FBP/fluorogen complex and reference dyes giving similar absorbances at the excitation wavelength, and the intensity integral computed. Provisional quantum yields were calculated by the relation:
(§4) [formula] where (phi is the quantum yield, I is the integrated intensity, A is the absorbance, η is the refractive index, and R designates the reference dye. Provisional quantum yields were adjusted to 1:1 complexation by using the solution KD of the complex to quantify the proportional occupancy at these concentrations (using Graphpad Prism 4.0 and the above ligand depletion algorithm).
A cyanic dye, Cy5.18 in PBS and Di-S—C2-(5) in MeOH were used as reference fluorophores for the determination of HL4-MG/MG-2p and L5-MG/MG-2p quantum yields. […] These differences in absorbance magnitude underrepresent actual differences because of incomplete complexation at these concentrations. […]

[4] = Fluorogen binding affinity to yeast surface displayed FBPs (TO1-2p)
Description: Cell surface KD values were determined on Prism Graphpad Prism 4.0 software by non-linear regression analysis using a one-site binding algorithm for saturation binding: Y═Bmax*X═(KD+X) where X is the concentration of fluorogen. Determination of Fluorogen Binding Affinity to Soluble FBPs

[5] = Fluorogenic enhancement of purified FBP (TO1-2p); assay type: biochemical; details: direct measurement
Description: (§5) Fluorogenic enhancement of HL4-MG, L5-MG and HL1.0.1-TO1 was measured in 96 well microplates on a Tecan Safire2 reader by comparison of the fluorescence of 500 nM free fluorogen with the fluorescence of a mixture of 500 nM fluorogen and 2 μM respective FBP. After a 1 hour incubation to allow complex formation, fluorescence was measured at the excitation and emission maxima of the fluorogen/FBP complexes. Fluorescence of yeast PBS buffer was subtracted from all samples. Fluorescence readings were stable for at least 16 hours.
(§6) Extended gain settings were used to increase numerical accuracy. For HL4-MG and L5MG, the differences in fluorescence between complexes and free dye exceeded the extended gain range of the instrument, so intermediate concentrations of Cy5 were also measured to allow interpolation between the extreme values. Two independent experiments, each with triplicate measurements, were carried out for each of the 3 FBPS; standard deviations for averaged values of FBPS, free fluorogen or PBS were less than 5%. The fold-enhancement values for HL4-MG and L5-MG were respectively multiplied by 1.35 and 1.20 to correct for partial complexation.

[6] = Fluorogenic enhancement of purified FBP (MG-2p); assay type: biochemical; details: HL4-MG/MG-2p complex
Description: as §5, §6

[7] = Quantum yield and absorbance of FBP/MG-2p complex; assay type: physicochemical
Description: as §2, §3, §4
A cyanic dye, Cy5.18 in PBS and Di-S—C2-(5) in MeOH were used as reference fluorophores for the determination of HL4-MG/MG-2p and L5-MG/MG-2p quantum yields. 2 μM scFv and 440 nM MG-2p were employed; emission spectra of respective complexes were taken in duplicate. […] These differences in absorbance magnitude underrepresent actual differences because of incomplete complexation at these concentrations. HL4MG/MG-2p and L5-MG/MG-2p quantum yields were respectively multiplied by 1.35 and 1.20 to correct for incomplete complexation. Fluorescein in 0.1 N NaOH and Rhodamine-6-G in MeOH were used as reference fluorophores for the determination of the quantum yield of HL1.0.1-TO1/TO12p. At the employed concentrations of 2 μM scFv and 520 nM TO1-2p, virtually complete complexation is expected, and no correction was used. Only slight changes in absorbance magnitude were noted.

[8] = Fluorogen binding affinity to soluble FBPs (MG-2p); details: soluble versus yeast surface displayed FBP
Description: as §1

[9] = Cell surface complementation, fluorescence spectrometer on cell suspensions; assay type: cell-based, yeast; details: for Fluorescence: 1 μM TO1-2P, excitation 506 nm, emission 610 nm, corrected for buffer+dye and no-dye samples
Description: (§7) In the following experiments three classes of yeast cells were generated by molecular biology methods known in the art. One class of yeast expressed only the heavy chain of the scFv on the surface. A second class expressed only the light chain of the scFv on its surface. The third class expressed both the heavy and light chains on the surface. When the fluorescent reporter TO1 was added independently to solutions containing the three classes of yeast cells, only the third class that expressed both heavy and light chains at a high surface density produced a fluorescence increase, as shown below. Specifically, two vectors, pPNL6 and pPNL6URA3 were prepared, where the TRP1 gene of pPNL6 was replaced with the URA3 gene of S. cerevisiae. This approach allowed selection for both plasmids in a single cell. Fragments carrying scFv1, scFv1 HO (heavy only chain), or scFv1 LO (light only chain) were cloned into each of the two vectors.
JAR200 yeast cells were transformed with each single plasmid as well as both scFv1 HO (PNL6)+scFv1 LO (PNL6URA3) or both scFv1 HO (PNL6URA3)+scFv1 LO (PNL6). Analysis by FACS and TECAN followed induction of the cells. In both cases, 1 μM TO1-2P was used.
In the second approach, a fluorescence spectrometer was used to quantify the fluorescence from suspensions of cells. The fluorescence excitation wavelength was 506 nm and the emission wavelength was 610 nm. Values presented below are corrected from raw data by subtracting out the values for (buffer+dye) and induced (no dye) samples. They were then corrected for the per cent of the population that was induced, as determined by the flow cytometry analysis.

[10] = Cell surface complementation, flow cytometry of TO1-2p fluorescence; assay type: cell-based; details: 1 μM TO1-2P, induced JAR200 yeast, emission at 530
Description: as §7, with “vectors. […]” for “vectors.”
In the first approach, flow cytometry was used to assay cellular fluorescence of the three classes of yeast in the presence and absence of TO 1. The population of induced cells was analyzed by measuring fluorescence emitted at 685 from a signal caused by protein labeled by anti-C-myc Alexa 647. […] For cells that expressed full length fragments the TO1-2p fluorescence was observed as emission at 530.

B1: HL1.0.1-TO1: affinity matured fluorogen binding scFv, SEQ ID NO: 7 (protein)
scFv: QVQLVESEAEVKKPGSSVKVSCKASGGTFSSYAISWVRQAPGQGLEWMGGTIPIFGTADYAQEFQGRVTITTDESTSTAYMELSGLRSEDTAVYYCVLLGTTMVTGHYFDYWGQGTLVTVSSGILGSGGGGSGGGGSGGGGSNFMLTQPPSASGTPGQSVTISCSGSGSNIGNNKVNWYQQLPGTAPKLLIYSNNQRPSGVPDRFSGSKSGTSASLAISGLQSEDEADYYCAAWDDGLSGYVFGTGTKLTVL
modifications: scFv sequence
KD in solution [1]: very similar to that observed on the cell surface
emission maxima [2]: 530 nm
excitation maximum [2]: 509 nm
extinction coefficient [3]: 60,000 M^−1 cm^−1
quantum yield [3]: 0.47
Kd ([4]; yeast cell surface displayed FBP, fluorogen TO1-2p): ~3 nM
fluorescence increase of TO1-2p upon binding [5]: about 2,600 fold

B2: HL4-MG: malachite green binding scFv, SEQ ID NO: 11 (protein)
scFv: QVQLVESEGGLVQPGGSLRLSCAASGFTFSSYEMNWVRQAPGKGLEWVSRIDGDGSSTNYADSVKGRFTISRDNAKSTLYLQMNSLRAEDTAVYYCTRARYFGSVSPYGMDVWGQGTTVTVSSGILGSGGGGSGGGGSGGGGSDIRVTQSPSSVSASVGDRVTISCRASQGIATWLGWYQQKPGKPPQLLIYSASTLQTGVPSRFSGSGSGTDFTLTISSLQPEDVATYYCQEGSTFPLTFGGGTKVDIKSGILEQKLISEEDL
modifications: scFv sequence, (GILEQKLISEEDL at end of sequence is derived from a vector)
fluorescence enhancement as compared to free fluorogen [6]: about 18,000 fold
absorbance of FBP/fluorogen relative to free MG-2p [7]: more than 1.4 fold
extinction coefficient [7]: about 105,000 M^−1 cm^−1
quantum yield [7]: 0.17
reduced affinity for MG-2p in solution as compared to surface display [8]: 185 fold

B3: HO PNL6: scFv1 heavy chain only, vector pPNL6, displayed on yeast (antibody, V domains shown)
VH: QVQLVESEAEVKKPGSSVKVSCKASGGTFSSYAISWVRQAPGQGLEWMGGIIPIFGTANYAQKFQGRVTITADESTSTAYMELSSLRSEDTAVYYCVLLDTTMVTGYYFDYWGQGTLVTVSS
Fluorescence [9]: 135
F/ (% Pop IND) ([9]; fluorescence corrected for per cent of population induced): 160
MEAN 530 SIGNAL [10]: 88

B4: HO PNL6URA3: scFv1 heavy chain only, vector pPNL6URA3, displayed on yeast (antibody, V domains shown)
VH: B3 VH
Fluorescence [9]: −605
MEAN 530 SIGNAL [10]: 82

B5: HL2-TO1: fluorogen binding scFv, SEQ ID NO: 5 (protein)
scFv: QVQLQQGGAGLLKPSETLSLTCGVYGGSFSGYYWSWIRQSPGKGLEWIGEINHSGSANYNPSVKSRVTISVDTSKNQFSLQLSSVTAADTAVYYCARDRAVLTGEGWYFDLWGRGTLVTVSSGILGSGGGGSGGGGSGGGGSSYELTQPPSVSVSPGQTASITCSGDKLGDKYTCWYQQKPGQSPVLVLYEDTKRPSGIPERFSGSNSGNTATLTISRVEAGDEADYYCQLWDSSSDHYVFGSGTKLTVL
modifications: scFv sequence
emission maxima [2]: 550 nm
excitation maximum [2]: 515 nm
dissociation constants ([4]; yeast surface displayed FBP, TO1-2p, in words): high nanomolar range

B6: L5-MG: malachite green binding light chain only FBP, SEQ ID NO: 13 (antibody)
VL: SASTGSFDSWGQGTLVTVSSGILGSGGGGSGGGGSGGGGSQAVVTQEPSVTVSPGGTVILTCGSSTGAVTSGHYANWFQQKPGQAPRALIFETDKKYSWTPGRFSGSLLGAKAALTISDAQPEDEAEYYCLLSDVDGYLFGGGTQLTVLSGILEQKLISEEDL
modifications: scFv sequence, (GILEQKLISEEDL at end of sequence is derived from a vector)
reduced affinity for MG-2p in solution as compared to surface display [8]: 265 fold
